{"source": "patent US12491161B2", "about": "“Single vial vaccine formulations” (priority 2013, dated 2025)", "molecules": {"B1": {"name": "ID93: recombinant tandem fusion protein antigen of Mtb Rv3619, Rv1813, Rv3620 and Rv2608 (SEQ ID NO: 1 or 2) (protein)", "chain": "MGSSHHHHHHSSGLVPRGSHMTINYQFGDVDAHGAMIRAQAGSLEAEHQAIISDVLTASDFWGGAGSAACQGFITQLGRNFQVIYEQANAHGQKVQAAGNNMAQTDSAVGSSWAGTHLANGSMSEVMMSEIAGLPIPPIIHYGAIAYAPSGASGKAWHQRTPARAEQVALEKCGDKTCKVVSRFTRCGAVAYNGSKYQGGTGLTRRAAEDDAVNRLEGGRIVNWACNELMTSRFMTDPHAMRDMAGRFEVHAQTVEDEARRMWASAQNISGAGWSGMAEATSLDTMTQMNQAFRNIVNMLHGVRDGLVRDANNYEQQEQASQQILSSVDINFAVLPPEVNSARIFAGAGLGPMLAAASAWDGLAEELHAAAGSFASVTTGLAGDAWHGPASLAMTRAASPYVGWLNTAAGQAAQAAGQARLAASAFEATLAATVSPAMVAANRTRLASLVAANLLGQNAPAIAAAEAEYEQIWAQDVAAMFGYHSAASAVATQLAPIQEGLQQQLQNVLAQLASGNLGSGNVGVGNIGNDNIGNANIGFGNRGDANIGIGNIGDRNLGIGNTGNWNIGIGITGNGQIGFGKPANPDVLVVGNGGPGVTALVMGGTDSLLPLPNIPLLEYAARFITPVHPGYTATFLETPSQFFPFTGLNSLTYDVSVAQGVTNLHTAIMAQLAAGNEVVVFGTSQSATIATFEMRYLQSLPAHLRPGLDELSFTLTGNPNRPDGGILTRFGFSIPQLGFTLSGATPADAYPTVDYAFQYDGVNDFPKYPLNVFATANAIAGILFLHSGLIALPPDLASGVVQPVSSPDVLTTYILLPSQDLPLLVPLRAIPLLGNPLADLIQPDLRVLVELGYDRTAHQDVPSPFGLFPDVDWAEVAADLQQGAVQGVNDALSGLGLPPPWQPALPRLFST"}}, "key": {"[1]": {"assay": "Stability under continuous cold-chain maintenance", "type": "physicochemical", "settings": "4° C."}, "[2]": {"assay": "Emulsion particle size and polydispersity by dynamic light scattering (DLS)", "type": "physicochemical", "method": "Emulsion particle size, polydispersity (PdI), and zeta potential were evaluated using dynamic light scattering (DLS) on a Malvern (Worcestershire, UK) Nano-ZS. Measurements were performed generally as previously described (Fox et al., 2011, Pharmaceutical Development and Technology, 16(5):511-519). Briefly, all DLS size measurements were performed in 10^−2 dilutions into 20 nm filtered water (described above) and evaluated in triplicate on single aliquots. For zeta-potential measurements, the same aliquot was evaluated using triplicate measurements and an automatic software determination of the measurement duration between 20 and 40 runs.\nParticle size, polydispersity, and zeta potential measurements were made as described previously (Fox et al., 2008, Colloids and Surfaces B: Biointerfaces, 65:98-105) using a Malvern (Worcestershire, UK) Nano-ZS after 100 times dilution into ultrapure water filtered through a 20 nm Whatman (Maidstone, Kent, UK) Anotop plus filter. Nanoparticle tracking analysis was performed with a NanoSight LM10 (Amesbury, UK) with a 405 nm laser and a Hamamatsu Orca Flash 2.8 CMOS camera (Hamamatsu, JP). Samples were diluted 1:105 in 20-nm filtered ultrapure water in three steps. Each sample was diluted and analyzed four times, independently, to account for dilution error. Ninety seconds of video were recorded for each sample with optimized shutter and gain settings. The camera histogram gating was adjusted to maximize sensitivity. Data analysis was performed using NanoSight NTA 2.3 software (Wiltshire, UK) in standard mode."}}, "data": [{"molecule": "B1", "values": [{"measurement": "stability under continuous cold-chain maintenance", "setting": "[1]", "result": "stable for more than a year"}, {"measurement": "effect of heat stress on particle size", "setting": "[2]; 50° C. for 30 days", "result": "reduced the average particle size observed; however, this was not statistically significant"}, {"measurement": "effect of heat stress on polydispersity", "setting": "[2]; 50° C. for 30 days, liquid or lyophilized formats", "result": "did not affect the polydispersity"}, {"measurement": "particle size (Z-average diameter)", "setting": "[2]; unstressed", "result": "approximately 70 nm"}]}]}
